Source: PMC3059592 (Virology, 2010)
Values joined by “and” are separate entries in the source; they are usually repeats but may differ in a detail not shown here. Equal values may be shown once.

Molecular target: the molecule itself
Test: sucrose density gradient centrifugation

B1: PIV-5 hemagglutinin-neuraminidase (HN) protein, mutant E37D (natural protein)
chain: MVAEDAPVRATCRVLFRTTTLIFLCTLLALSISILYDSLITQKQIMSQAGSTGSNSGLGSITDLLNNILSVANQIIYNSAVALPLQLDTLESTLLTAIKSLQTSDKLEQNCSWSAALINDNRYINGINQFYFSIAEGRNLTLGPLLNMPSFIPTATTPEGCTRIPSFSLTKTHWCYTHNVILNGCQDHVSSNQFVSMGIIEPTSAGFPFFRTLKTLYLSDGVNRKSCSISTVPGGCMMYCFVSTQPERDDYFSAAPPEQRIIIMYYNDTIVERIINPPGVLDVWATLNPGTGSGVYYLGWVLFPIYGGVIKGTSLWNNQANKYFIPQMVAALCSQNQATQVQNAKSSYYSSWFGNRMIQSGILACPLRQDLTNECLVLPFSNDQVLMGAEGRLYMYGDSVYYYQRSNSWWPMTMLYKVTITFTNGQPSAISAQNVPTQQVPRPGTGDCSATNRCPGFCLTGVYADAWLLTNPSSTSTFGSEATFTGSYLNTATQRINPTMYIANNTQIISSQQFGSSGQEAAYGHTTCFRDTGSVMVYCIYIIELSSSLLGQFQIVPFIRQVTLS
stoichiometry N: 2 and 4
